Target: T1, C-RapL (purified domain) (human)
T1 sequence (Q8WWW0 whole entry, looked up): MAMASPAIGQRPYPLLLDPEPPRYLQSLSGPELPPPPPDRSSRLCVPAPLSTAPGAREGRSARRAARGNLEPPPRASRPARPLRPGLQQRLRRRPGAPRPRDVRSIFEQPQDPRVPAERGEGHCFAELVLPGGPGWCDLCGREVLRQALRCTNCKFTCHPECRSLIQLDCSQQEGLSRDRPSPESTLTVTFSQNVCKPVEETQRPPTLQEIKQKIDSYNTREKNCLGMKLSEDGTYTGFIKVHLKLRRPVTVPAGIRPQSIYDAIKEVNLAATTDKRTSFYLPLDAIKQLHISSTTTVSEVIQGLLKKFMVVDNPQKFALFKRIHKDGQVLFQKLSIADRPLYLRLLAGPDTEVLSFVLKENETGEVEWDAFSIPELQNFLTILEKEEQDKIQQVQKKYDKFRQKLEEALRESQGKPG
Assay: ITC

B1: N-SKAP1 (purified domain) (domain or fragment)
chain: MQAAALPEEIRWLLEDAEEFLAEGLRNENLSAVARDHRDHILRGFQQIKARYYWDFQPQGGDIGQDSSDDNHSGTLGLSLTSDAPFLSDYQDEGMEDIVKGAQE
Kd: 600 nM
dH: -2.3 kcal/mol
stoichiometry N: 0.85
